Data as given in paper PMC6381605, “NR4A Nuclear Receptors Target Poly-ADP-Ribosylated DNA-PKcs Protein to Promote DNA Repair”.

Target: NR4A2 R319A (UniProt Q06219 1-598, R319A)
Test: EMSA; EMSA: 1 ug protein, 10 mM Tris pH 8, 50 mM NaCl, 1 mM EDTA, 5% glycerol, 5 mM DTT, 20 ng/ul dIdC, 1.25 mg/ml BSA, 20 min room temperature; 5% PAGE 0.25x TBE. PAR dot blots left out (PAR is not a defined nucleic acid).
Details: protein: recombinant; tags: GST tag cleaved (PreScission); label: 32P (alpha-32P-dCTP Klenow fill-in); 5' overhang 4 nt (GATC) on both ends before Klenow fill-in

Sequence of NR4A2 R319A (Q06219 whole entry R319A): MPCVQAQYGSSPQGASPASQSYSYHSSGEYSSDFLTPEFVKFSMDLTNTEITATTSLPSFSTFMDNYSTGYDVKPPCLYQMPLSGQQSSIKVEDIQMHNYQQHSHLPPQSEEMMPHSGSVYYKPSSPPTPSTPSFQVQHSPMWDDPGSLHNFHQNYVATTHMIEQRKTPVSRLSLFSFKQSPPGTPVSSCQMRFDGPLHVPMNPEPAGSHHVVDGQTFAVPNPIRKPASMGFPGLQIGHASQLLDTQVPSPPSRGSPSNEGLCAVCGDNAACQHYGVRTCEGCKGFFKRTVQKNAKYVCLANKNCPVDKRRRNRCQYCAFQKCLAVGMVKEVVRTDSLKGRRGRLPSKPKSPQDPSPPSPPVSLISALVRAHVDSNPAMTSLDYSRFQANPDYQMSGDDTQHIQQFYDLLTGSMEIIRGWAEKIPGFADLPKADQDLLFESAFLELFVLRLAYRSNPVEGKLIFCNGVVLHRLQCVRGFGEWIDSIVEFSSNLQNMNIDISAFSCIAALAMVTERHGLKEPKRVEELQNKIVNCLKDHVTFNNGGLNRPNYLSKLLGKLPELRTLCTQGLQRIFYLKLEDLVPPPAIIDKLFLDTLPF

B1: NBRE (dsDNA)
DNA 1: GATCCTCGTGCGAAAAGGTCAAGCGCTA
DNA 2: GATCTAGCGCTTGACCTTTTCGCACGAG
  binding result: no binding
